Usually Kd stands for the free concentration of one partner at which half of the binding sites on the other are occupied at equilibrium, for simple one-to-one binding. Read a low Kd as higher affinity.

In paper PMC10333379 one finds Kd data, which are given here for 1 substance.

The test has as its target human angiotensin-converting enzyme 2 (hACE2) with an Fc domain (human) (UniProt Q9BYF1). The test can be described thus: BLI. A general note: In BLI a coated tip is dipped into the sample, and binding shifts an interference pattern.
UniProt Q9BYF1, sequence (Q9BYF1 18-740): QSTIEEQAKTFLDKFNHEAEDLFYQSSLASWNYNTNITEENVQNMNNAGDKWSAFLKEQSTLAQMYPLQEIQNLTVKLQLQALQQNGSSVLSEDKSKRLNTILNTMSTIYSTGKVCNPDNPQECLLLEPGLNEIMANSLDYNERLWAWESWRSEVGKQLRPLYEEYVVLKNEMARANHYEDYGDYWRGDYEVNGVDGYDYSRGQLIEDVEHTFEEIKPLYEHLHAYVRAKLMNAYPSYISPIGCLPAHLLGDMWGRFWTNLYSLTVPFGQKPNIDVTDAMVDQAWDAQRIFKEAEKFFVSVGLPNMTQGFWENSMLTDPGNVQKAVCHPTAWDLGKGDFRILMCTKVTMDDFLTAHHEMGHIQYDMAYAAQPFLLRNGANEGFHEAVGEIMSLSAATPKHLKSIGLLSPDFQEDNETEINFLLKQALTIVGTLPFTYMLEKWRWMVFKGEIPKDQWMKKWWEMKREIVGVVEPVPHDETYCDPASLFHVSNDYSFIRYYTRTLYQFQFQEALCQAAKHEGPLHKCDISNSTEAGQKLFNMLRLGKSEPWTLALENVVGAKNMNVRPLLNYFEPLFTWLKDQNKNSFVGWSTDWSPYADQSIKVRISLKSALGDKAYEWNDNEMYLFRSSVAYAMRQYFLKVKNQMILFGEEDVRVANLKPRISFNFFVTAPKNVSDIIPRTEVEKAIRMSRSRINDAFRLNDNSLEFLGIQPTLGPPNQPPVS

Regarding “Bat SARS-like coronavirus CX1 receptor-binding domain (RBD) of spike protein (domain or fragment)”, the Kd was found to be 10.7 nM. This counts as double-digit nanomolar.
